Experimental data published in patent US20120244171A1 (IMMUNOGEN, published 2012).

Molecular target: human folate receptor 1 (human, UniProt P15328 25-234)
Assay: cell-based or functional assay

Chain of human folate receptor 1 (P15328 25-234): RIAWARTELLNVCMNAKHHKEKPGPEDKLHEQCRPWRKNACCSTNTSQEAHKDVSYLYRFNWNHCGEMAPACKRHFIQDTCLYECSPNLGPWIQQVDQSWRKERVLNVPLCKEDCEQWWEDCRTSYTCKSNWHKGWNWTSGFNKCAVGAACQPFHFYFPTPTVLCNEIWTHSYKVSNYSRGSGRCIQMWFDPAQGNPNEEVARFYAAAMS

B1: huFOLR1-SPDB-1f conjugate (antibody, human IgG1, kappa, V domains shown)
VH: QVQLVQSGAEVVKPGASVKISCKASGYTFTGYFMNWVKQSPGQSLEWIGRIHPYDGDTFYNQKFQGKATLTVDKSSNTAHMELLSLTSEDFAVYYCTRYDGSRAMDYWGQGTTVTVSS
VL: DIVLTQSPLSLAVSLGQPAIISCKASQSVSFAGTSLMHWYHQKPGQQPRLLIYRASNLEAGVPDRFSGSGSKTDFTLTISPVEAEDAATYYCQQSREYPYTFGGGTKLEIKR
modifications: compound 1f linked through the SPDB linker; positions not given
fold loss of cytotoxic potency when blocked with unconjugated antibody: 40 fold
fold reduction of cytotoxic effect on KB cells by an excess of unconjugated huFOLR1 antibody: > 40 fold
in vitro cytotoxicity IC50 on antigen positive KB cells: 0.055 nM
